# Patent US20120100139A1 (APTEVO RESEARCH AND DEVELOPMENT, published 2012)
# T1: CD86 on cells (WIL2-S human B-lymphoblastoid cells; HuCD86-2A2 CHO cells expressing CD86) (human, UniProt P42081 24-329)
# T1 construct: whole, on cells; also called cell surface CD86
# T1 sequence (looked up): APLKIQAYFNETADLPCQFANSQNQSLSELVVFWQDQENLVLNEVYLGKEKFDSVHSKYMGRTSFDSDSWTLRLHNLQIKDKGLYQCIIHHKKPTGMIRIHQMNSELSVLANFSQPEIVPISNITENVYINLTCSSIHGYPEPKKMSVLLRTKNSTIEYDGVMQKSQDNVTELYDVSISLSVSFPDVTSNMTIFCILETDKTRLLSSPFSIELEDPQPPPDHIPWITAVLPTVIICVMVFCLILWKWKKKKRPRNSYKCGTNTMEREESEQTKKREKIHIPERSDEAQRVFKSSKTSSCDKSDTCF
# Target: T1, CD86 on cells (WIL2-S human …)
# Assay: flow cytometry, HEK293 supernatants on HuCD86-2A2 cells
# Method: Briefly, WIL2-S or HuCD86-2A2 cells were incubated with test molecules containing a CD86 antagonist at concentrations ranging from saturation to background levels. […] After the incubation, cells were washed and a fluorophore (R-phycoerythrin) tagged F(Ab′)₂ antibody specific for the Fc portion of the xceptor molecule, IL10R-Ig fusion protein, or anti-IL10 antibody. The tagged cells were then passed through a flow cytometer and data was analyzed by plotting median fluorescence intensity of each sample.
# In another experiment, different versions of humanized FUN1 SMIPs were tested for CD86 binding. Supernatants of HEK293 cells transiently transfected with the six different versions of humanized FUN1 SMIPs were examined for CD86 binding using HuCD86-2A2 cells.
binder,measurement,value
"FUN1-22 humanized FUN1 SMIP (Fc fusion, SMIP: scFv-hinge-Fc single chain) QVQLVQSGAEVKKPGASVKVSCKASGYTFTDYNMNWVRQAPGQGLEWMGNIDPYYGGTSYNQKFKGRVTMTRDTSISTAYMELSRLRSDDTAVYYCARWDYRYDDGRAYYVMDFWGQGTTVTVSSGGGGSGGGGSGGGGSGGGGSDIQMTQSPSSLSASVGDRVTITCKSSQSVLYSSNQKNYLAWYQQKPGKVPKLLIYWASTRESGVPSRFSGSGSGTDFTLTISSLQPEDVATYYCHQYLYSWTFGQGTKLEIKRLEPKSSDKTHTCPPCPAPEAAGAPSVFLFPPKPKDTLMISRTPEVTCVVVDVSHEDPEVKFNWYVDGVEVHNAKTKPREEQYNSTYRVVSVLTVLHQDWLNGKAYACAVSNKALPAPIEKTISKAKGQPREPQVYTLPPSRDELTKNQVSLTCLVKGFYPSDIAVEWESNGQPENNYKTTPPVLDSDGSFFLYSKLTVDKSRWQQGNVFSCSVMHEALHNHYTQKSLSLSPG",binding result,binds
